Test results: the RNAGym collection of RNA variant scans (doi:10.1093/nar/gkz1192)

B1: CPEB3 Ribozyme (parent)
chain: UAACAGGGGGCCACAGCAGAAGCGUUCACGUCGCAGCCCCUGUCAGAUUCUGGUGAAUCUGCGAAUUCUGCUGUAUAUCUC

Variants of: B1
Experiment: self-cleavage, relative activity (ratio to wild type); higher = more cleavage; in vitro, sequencing
How it was run: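 Libraries of CPEB3 self-cleaving ribozyme mutants came from rounds of error-prone PCR and carried barcodes, which DNA sequencing matched to variants. In vitro transcription used T7 RNA polymerase at 37°C for 5 hours, with a further 15 min in DNase I before EDTA stopped the reaction; the ribozymes cleaved during both steps. The RNA was reverse transcribed with template switching and sequenced on Illumina. Relative activity is the cleaved/total read fraction of a variant divided by that of the unmutated ribozyme, averaged over three batches with at least 5 reads.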

Variant | self-cleavage
C14U U76C | 1.15
C14U U80C | 1.33
A15C A64G | 0.62
A15G G42C | 0.25
A15G G42A | 0.15
A15C A65G | 0.46
A15C A65U | 0.17
A15G U48C | 0.46
A15G U48A | 0.35
A15G U48G | 0.72
A15G U25G | 0.4
A15G U25C | 0.28
A15G U25A | 0.28
A15G A57U | 0.56
A15G A57G | 0.63
A15G G61A | 0.34
C14U U60G | 0.41
C14U U60A | 0.53
A15G U74C | 1.21
A15G U74A | 1.14
A15G U74G | 1.14
A15U A18G | 0.29
A15U A18U | 0.25
A15U A18C | 0.35

Variant | self-cleavage
C14U A75U | 1.23
C14U A75G | 1.23
C14U A65U | 0.34
A15C U31C | 0.6
A15C U31A | 0.42
A15G U67A | 0.35
A15G U67G | 0.4
A15G U67C | 0.24
C14U G22C | 0.18
C14U G22A | 0.41
C14U U48C | 0.97
C14U U48A | 0.71
A15C U26C | 0.36
C14U C40A | 0.24
C14U C40U | 1.07
A15G U60A | 0.35
A15G U60C | 0.33
A15G U60G | 0.34
A15G C27A | 0.21
A15G C27U | 0.27
A15G C40G | 0.28
A15G C40U | 0.67
A15G C40A | 0.41
C14U C17U | 0.87

Variant | self-cleavage
A15C A45U | 0.45
A15C A45G | 0.88
A15C A45C | 0.37
A15U A65G | 0.29
A15U A65U | 0.37
C14U A47G | 0.7
C14U A47U | 1.21
A15G U51G | 0.62
A15G U51C | 0.74
A15G U51A | 0.9
A15G A77U | 0.97
A15G A77G | 1.15
A15G A77C | 1.1
A15C U25C | 0.23
A15C U25A | 0.23
A15C C59U | 0.85
A15U A35G | 1.24
A15U A35U | 0.51
C14U A56U | 0.5
C14U A56G | 1.23
C14U U31A | 0.74
A15G C81A | 1.16
A15G C81G | 1.09
A15G C81U | 1.02

Variant | self-cleavage
A15C C34U | 0.29
A15G U69A | 0.35
A15G U69C | 0.3
A15G U69G | 0.32
A15U A45G | 0.49
A15U A45C | 0.18
A15U A45U | 0.33
C14U G36A | 0.32
A15G C68U | 0.67
A15G C68A | 0.2
C14U A64U | 0.61
C14U A64G | 1.17
A15C U41A | 0.22
A15C U41G | 0.15
A15C U41C | 1.13
A15G U76A | 0.94
A15G U76C | 0.89
A15G G70U | 0.18
A15G G70C | 0.11
A15G G70A | 0.29
A15G C37A | 0.11
A15G C37G | 0.69
A15G C37U | 0.81
A15C A57U | 0.54

Variant | self-cleavage
A15C A57G | 0.43
A15G G22A | 0.22
A15G G22U | 0.46
A15G G24A | 0.39
A15G G24U | 0.12
A15G C29A | 0.16
A15G C29U | 0.41
A15G C29G | 0.16
C14U C32A | 0.2
C14U C32G | 0.1
A15G U26C | 0.41
A15G U26A | 0.71
A15G U26G | 0.55
C14U G63A | 1.26
C14U U26C | 0.66
C14U U26A | 0.93
A15C A56U | 0.3
A15C A56G | 0.68
A15C U49A | 0.7
A15C U49C | 0.35
A15G G73C | 1.16
A15G G73A | 1.19
A15C U43C | 0.46
A15C U43G | 0.25

Variant | self-cleavage
A15C U69C | 0.26
C14U C59A | 0.28
C14U G46U | 0.27
C14U G46A | 0.12
C14U U54C | 1.25
C14U U54G | 1.16
A15G G33A | 0.24
A15G G33U | 0.12
A15G G33C | 0.29
A15C G24A | 0.18
A15C A47U | 0.17
A15C A47G | 0.85
C14U G52C | 1.23
A15G U80A | 1.07
A15G U80C | 1.06
A15G U80G | 0.86
A15U A28G | 0.22
A15U A28U | 0.38
A15U A28C | 0.33
A15C U67C | 0.18
A15C G33C | 0.16
A15G U31A | 0.63
A15G U31C | 0.36
A15U A64G | 0.54

Variant | self-cleavage
A15U A64U | 0.37
A15G C71U | 0.28
A15G A20G | 0.47
A15G A20C | 0.18
A15G A20U | 0.24
C14U G61C | 0.35
A15C C68U | 0.59
A15C U80A | 1.22
C14U G33A | 0.21
C14U U58C | 0.77
A15U A21G | 0.35
A15U A21U | 0.19
A15U A21C | 0.36
A15G C39U | 0.98
A15G C39G | 0.29
A15G C39A | 0.32
A15G G55A | 0.66
A15G G55U | 0.65
C14U U78G | 1.27
C14U U78C | 1.22
A15U A47C | 0.29
A15U A47U | 0.34
A15U A47G | 0.51
